Columns and labels:
[1] = Glutathione cleavage study; type: in vitro ADME; conditions: Tris buffer with 10 mM glutathione, Glutathione Challenge (10 mM), 100 μM conjugate, Tris pH 7.5, 37° C.
Description: A 20 mM stock of conjugate was prepared in 100% DMSO. The stocks were subsequently diluted in 100 mM Tris, pH 7.5, to yield an intermediate dilution of 500 μM followed by an additional dilution of 1:5 in 100 mM Tris, pH 7.5 to give a final concentration of 100 μM of conjugate. 100 mM glutathione was prepared immediately prior to use in H2O and diluted 1:10 in challenge samples for a final glutathione challenge concentration of 10 mM. Samples were mixed by inversion and incubated at 37° C. for up to 24 hrs. […]
(§1) Samples were thawed and extracted as follows: 8 μL of 25% phosphoric acid followed by 117 μL of 100% acetonitrile/0.1% TFA were added to each sample, mixed and centrifuged at 13000×G for 10 minutes. The supernatant was pipetted into 0.2 mL HPLC vials and placed on a Perkin Elmer Flexar HPLC autosampler. The following table summarizes HPLC conditions:
Data was analyzed by calculating the percentage reduction of compound (area of retention time peak of […] conjugate/area of retention time peak of conjugate at time 0)×100.

HCT116 = test: cells; type: cell-based, human; conditions: 96 h
Method in brief: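 DLD-1 WT (2500/well), FaDu and HeLa (5000/well) and HCT116 (3000/well) were grown in 10% FBS media and dosed in triplicate 24 h after plating. After 96 h of drug exposure at 37 °C, cells were fixed, Hoechst-stained and counted by imaging; percent growth delay was calculated versus untreated controls.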

Plasma stability studies = type: in vitro ADME; conditions: rat plasma, 100 μM conjugate, 37° C.
Description: A 20 mM stock of conjugate was prepared in 100% DMSO. The stocks were subsequently diluted in 100 mM Tris, pH 7.5 to yield an intermediate dilution of 500 μM and then diluted 1:5 directly into rat plasma to yield a final concentration of 100 μM of conjugate. Samples were mixed by inversion and incubated at 37° C. for up to 24 h. 50 μL samples were aliquoted into siliconized microfuge tubes at time 0, 4, and 24 h and immediately frozen at −80° C.
as §1, with “100% Acetonitrile/0.1%” for “100% acetonitrile/0.1%”, “TFA was” for “TFA were”
Data was analyzed by calculating the percentage reduction of compound (area of retention time peak of incubated conjugate/area of retention time peak of conjugate at time 0)×100.

Row | Compound | remaining at 4 h, 100 µM [1] [%] | remaining at 24 h, 100 µM [1] [%] | IC50 (HCT116) [nM] | remaining at 4 h, 100 µM (Plasma stability studies) [%] | remaining at 24 h, 100 µM (Plasma stability studies) [%]
1 | CC[C@@]1(O)C(=O)OCc2c1cc1n(c2=O)Cc2c-1nc1cc(F)c(C)c3c1c2[C@@H](NC(=O)O[C@H]1CC[C@H](SSC[C@H](NC(=O)[C@H](Cc2c[nH]c4ccccc24)NC(=O)[C@H](CC(C)C)NC(=O)[C@H](CC(C)C)NC(=O)[C@H](CC(=O)O)NC(=O)[C@H](CC(C)C)NC(=O)[C@H](CC(C)C)NC(=O)[C@H](CC(C)C)NC(=O)[C@@H](NC(=O)[C@H](CC(=O)O)NC(=O)[C@@H](NC(=O)[C@@H]2CCCN2C(=O)[C@H](Cc2ccccc2)NC(=O)[C@H](CC(C)C)NC(=O)[C@H](CC(C)C)NC(=O)[C@H](CC(=O)O)NC(=O)[C@H](CC(C)C)NC(=O)[C@H](Cc2ccc(O)cc2)NC(=O)[C@H](C)NC(=O)[C@H](CCCNC(=N)N)NC(=O)[C@H](Cc2c[nH]c4ccccc24)NC(=O)[C@@H]2CCCN2C(=O)[C@H](CC(N)=O)NC(=O)[C@H](CCC(N)=O)NC(=O)[C@H](CC(=O)O)NC(=O)[C@H](CC(=O)O)NC(=O)[C@H](C)N)[C@@H](C)O)[C@@H](C)O)C(=O)NCC(=O)O)CC1)CC3 [Compound 26] | 75.8 | 32.1 | 87 | 105 | 112
2 | CC[C@@]1(O)C(=O)OCc2c1cc1n(c2=O)Cc2c-1nc1cc(F)c(C)c3c1c2[C@@H](NC(=O)O[C@H]1COC[C@@H]1SSC[C@H](NC(=O)[C@H](Cc1c[nH]c2ccccc12)NC(=O)[C@H](CC(C)C)NC(=O)[C@H](CC(C)C)NC(=O)[C@H](CC(=O)O)NC(=O)[C@H](CC(C)C)NC(=O)[C@H](CC(C)C)NC(=O)[C@H](CC(C)C)NC(=O)[C@@H](NC(=O)[C@H](CC(=O)O)NC(=O)[C@@H](NC(=O)[C@@H]1CCCN1C(=O)[C@H](Cc1ccccc1)NC(=O)[C@H](CC(C)C)NC(=O)[C@H](CC(C)C)NC(=O)[C@H](CC(=O)O)NC(=O)[C@H](CC(C)C)NC(=O)[C@H](Cc1ccc(O)cc1)NC(=O)[C@H](C)NC(=O)[C@H](CCCNC(=N)N)NC(=O)[C@H](Cc1c[nH]c2ccccc12)NC(=O)[C@@H]1CCCN1C(=O)[C@H](CC(N)=O)NC(=O)[C@H](CCC(N)=O)NC(=O)[C@H](CC(=O)O)NC(=O)[C@H](CC(=O)O)NC(=O)[C@H](C)N)[C@@H](C)O)[C@@H](C)O)C(=O)NCC(=O)O)CC3 [Compound 17] | 3.4 | 1.7 | 0.7 | 107 | 105
3 | CC[C@@]1(O)C(=O)OCc2c1cc1n(c2=O)Cc2c-1nc1cc(F)c(C)c3c1c2[C@@H](NC(=O)O[C@H]1CCC[C@@H]1SSC[C@H](NC(=O)[C@H](Cc1c[nH]c2ccccc12)NC(=O)[C@H](CC(C)C)NC(=O)[C@H](CC(C)C)NC(=O)[C@H](CC(=O)O)NC(=O)[C@H](CC(C)C)NC(=O)[C@H](CC(C)C)NC(=O)[C@H](CC(C)C)NC(=O)[C@@H](NC(=O)[C@H](CC(=O)O)NC(=O)[C@@H](NC(=O)[C@@H]1CCCN1C(=O)[C@H](Cc1ccccc1)NC(=O)[C@H](CC(C)C)NC(=O)[C@H](CC(C)C)NC(=O)[C@H](CC(=O)O)NC(=O)[C@H](CC(C)C)NC(=O)[C@H](Cc1ccc(O)cc1)NC(=O)[C@H](C)NC(=O)[C@H](CCCNC(=N)N)NC(=O)[C@H](Cc1c[nH]c2ccccc12)NC(=O)[C@@H]1CCCN1C(=O)[C@H](CC(N)=O)NC(=O)[C@H](CCC(N)=O)NC(=O)[C@H](CC(=O)O)NC(=O)[C@H](CC(=O)O)NC(=O)[C@H](C)N)[C@@H](C)O)[C@@H](C)O)C(=O)NCC(=O)O)CC3 [Compound 15] | 19.4 | 8.3 | 1.7 | 105 | 103
4 | CC[C@@]1(O)C(=O)OCc2c1cc1n(c2=O)Cc2c-1nc1cc(F)c(C)c3c1c2[C@@H](NC(=O)O[C@H]1CCCCC[C@@H]1SSC[C@H](NC(=O)[C@H](Cc1c[nH]c2ccccc12)NC(=O)[C@H](CC(C)C)NC(=O)[C@H](CC(C)C)NC(=O)[C@H](CC(=O)O)NC(=O)[C@H](CC(C)C)NC(=O)[C@H](CC(C)C)NC(=O)[C@H](CC(C)C)NC(=O)[C@@H](NC(=O)[C@H](CC(=O)O)NC(=O)[C@@H](NC(=O)[C@@H]1CCCN1C(=O)[C@H](Cc1ccccc1)NC(=O)[C@H](CC(C)C)NC(=O)[C@H](CC(C)C)NC(=O)[C@H](CC(=O)O)NC(=O)[C@H](CC(C)C)NC(=O)[C@H](Cc1ccc(O)cc1)NC(=O)[C@H](C)NC(=O)[C@H](CCCNC(=N)N)NC(=O)[C@H](Cc1c[nH]c2ccccc12)NC(=O)[C@@H]1CCCN1C(=O)[C@H](CC(N)=O)NC(=O)[C@H](CCC(N)=O)NC(=O)[C@H](CC(=O)O)NC(=O)[C@H](CC(=O)O)NC(=O)[C@H](C)N)[C@@H](C)O)[C@@H](C)O)C(=O)NCC(=O)O)CC3 [Compound 23] | 61.4 | 13.2 | 11.9 | 92 | 92
5 | CC[C@@]1(O)C(=O)OCc2c1cc1n(c2=O)Cc2c-1nc1cc(F)c(C)c3c1c2[C@@H](NC(=O)O[C@@H]1COCC[C@H]1SSC[C@H](NC(=O)[C@H](Cc1c[nH]c2ccccc12)NC(=O)[C@H](CC(C)C)NC(=O)[C@H](CC(C)C)NC(=O)[C@H](CC(=O)O)NC(=O)[C@H](CC(C)C)NC(=O)[C@H](CC(C)C)NC(=O)[C@H](CC(C)C)NC(=O)[C@@H](NC(=O)[C@H](CC(=O)O)NC(=O)[C@@H](NC(=O)[C@@H]1CCCN1C(=O)[C@H](Cc1ccccc1)NC(=O)[C@H](CC(C)C)NC(=O)[C@H](CC(C)C)NC(=O)[C@H](CC(=O)O)NC(=O)[C@H](CC(C)C)NC(=O)[C@H](Cc1ccc(O)cc1)NC(=O)[C@H](C)NC(=O)[C@H](CCCNC(=N)N)NC(=O)[C@H](Cc1c[nH]c2ccccc12)NC(=O)[C@@H]1CCCN1C(=O)[C@H](CC(N)=O)NC(=O)[C@H](CCC(N)=O)NC(=O)[C@H](CC(=O)O)NC(=O)[C@H](CC(=O)O)NC(=O)[C@H](C)N)[C@@H](C)O)[C@@H](C)O)C(=O)NCC(=O)O)CC3 [Compound 20] | 5.2 | 8 | 7.9 | 98.7 | 95.8
6 | CC[C@@]1(O)C(=O)OCc2c1cc1n(c2=O)Cc2c-1nc1cc(F)c(C)c3c1c2[C@@H](NC(=O)O[C@H]1COCC[C@@H]1SSC[C@H](NC(=O)[C@H](Cc1c[nH]c2ccccc12)NC(=O)[C@H](CC(C)C)NC(=O)[C@H](CC(C)C)NC(=O)[C@H](CC(=O)O)NC(=O)[C@H](CC(C)C)NC(=O)[C@H](CC(C)C)NC(=O)[C@H](CC(C)C)NC(=O)[C@@H](NC(=O)[C@H](CC(=O)O)NC(=O)[C@@H](NC(=O)[C@@H]1CCCN1C(=O)[C@H](Cc1ccccc1)NC(=O)[C@H](CC(C)C)NC(=O)[C@H](CC(C)C)NC(=O)[C@H](CC(=O)O)NC(=O)[C@H](CC(C)C)NC(=O)[C@H](Cc1ccc(O)cc1)NC(=O)[C@H](C)NC(=O)[C@H](CCCNC(=N)N)NC(=O)[C@H](Cc1c[nH]c2ccccc12)NC(=O)[C@@H]1CCCN1C(=O)[C@H](CC(N)=O)NC(=O)[C@H](CCC(N)=O)NC(=O)[C@H](CC(=O)O)NC(=O)[C@H](CC(=O)O)NC(=O)[C@H](C)N)[C@@H](C)O)[C@@H](C)O)C(=O)NCC(=O)O)CC3 [Compound 21] | 9.5 | 12.6 | 3.1 | 101 | 98.2

From patent publication US12410262B2, “Peptide conjugates of cytotoxins as therapeutics” (Cybrexa 2, Inc., priority 2019, dated 2025)
